Experimental data from the RNAGym collection of RNA variant scans (doi:10.7554/elife.80360).

B1: HDV Ribozyme (parent)
chain: GGCCGGCAUGGUCCCAGCCUCCUCGCUGGCGCCGGCUGGGCAACAUUCCGAGGGGACCGUCCCCUCGGUAAUGGCGAAUGGGACCCA

Variants of: B1
Assay: self-cleavage, relative activity (ratio to wild type); higher = more cleavage; co-transcriptional

In order of rising self-cleavage:
1. C26G A78C  0
2. C13A G31C  0
3. A16C G25C  0
4. C15G U37G  0
5. C4A C33G  0
6. C75U A78C  0
7. U37G G59A  0
8. C4A C19U  0.0203
9. G28U C49A  0.0297
10. G25C G82C  0.0326
11. C30G C57U  0.0332
12. C13G G82U  0.0361
13. C14G C30U  0.0396
14. C22A A71C  0.0405
15. C7U C36A  0.0405
16. G28A A45G  0.0415
17. U20C C21A  0.0475
18. C32G U72A  0.0489
19. G28U G34A  0.0496
20. C4U G39C  0.0536
21. C3A C4A  0.0542
22. G29C G35U  0.0554
23. G31C G74A  0.0573
24. G25A G29C  0.0583
25. U12C U23A  0.0594
26. G10U G38U  0.0625
27. C22G U79G  0.0665
28. C4A A43U  0.0707
29. G2A C75U  0.0715
30. G28A A43G  0.0739
31. G28U A83C  0.0811
32. U12C A71C  0.0831
33. C19U G31C  0.0845
34. G11C G29C  0.0852
35. G74A U79A  0.0852
36. C33A A43C  0.0852
37. U12C G35C  0.0923
38. C3U G6U  0.0934
39. G10C G25U  0.0941
40. C3G G17C  0.0941
41. C33G C44A  0.0978
42. C4G G25U  0.109
43. U37G C48G  0.111
44. U20G U60C  0.111
45. C18U G82U  0.111
46. G2C C26G  0.113
47. U20C G40U  0.113
48. C36A A42G  0.113
49. C21G C62A  0.119
50. C24U G73U  0.122
51. G34A A43G  0.125
52. C30U U79G  0.128
53. A16C C75U  0.138
54. U46A G80A  0.147
55. G28C G40A  0.148
56. C19A C63A  0.153
57. G17C G73A  0.156
58. G38C C84U  0.158
59. C18G C66U  0.166
60. U37A A45U  0.175
61. G25U C41U  0.188
62. G35C C61U  0.188
63. G34U  0.19
64. G28U G82A  0.191
65. C24A A83C  0.192
66. G80U A87C  0.192
67. A78U G82U  0.197
68. A51C G80U  0.199
69. G11U C86G  0.199
70. C14A G25C  0.201
71. G39C C86U  0.208
72. G38U G50A  0.218
73. G73U A83G  0.219
74. U12A G39A  0.225
75. U20G A77U  0.237
76. C7G A51G  0.237
77. C19U U23G  0.237
78. G67U A78U  0.253
79. C48U G74C  0.253
80. C22U G73C  0.256
81. G38A C84G  0.257
82. C4G C64G  0.259
83. A16U U20C  0.277
84. A45U G81U  0.277
85. C19A G67U  0.281
86. A16U C19A  0.285
87. A45U G81C  0.287
88. G80U C85A  0.288
89. G52U G67C  0.295
90. U37A U72G  0.302
91. G35U G68U  0.309
92. G10A C24U  0.338
93. G11C G53A  0.344
94. C13G C26A  0.35
95. G81A C85A  0.35
96. A16C U60C  0.369
97. G50A G73U  0.369
98. C3A A87G  0.378
99. G1U C85G  0.383
100. G1U C48U  0.415
101. G17U G55U  0.415
102. U12G C13A  0.415
103. G35A G40U  0.42
104. C4G C86U  0.44
105. G52C G67C  0.446
106. C15U A83G  0.45
107. C30A C48G  0.467
108. C15G A87U  0.475
109. G1U U47C  0.475
110. G10U C84A  0.519
111. G31A G50C  0.521
112. G68C G81A  0.526
113. A8U U23C  0.532
114. C26A A45C  0.554
115. A16U C44A  0.598
116. A45G U72A  0.604
117. C7A C63U  0.652
118. G10U A87U  0.653
119. A8U U47C  0.68
120. C14A A56U  0.688
121. G17U C57A  0.689
122. G59C G81A  0.69
123. U60C A83G  0.707
124. G10C G67A  0.712
125. G6A C66A  0.724
126. U46A C66A  0.727
127. C26U U46A  0.731
128. A45C U65G  0.745
129. G17A A51C  0.755
130. G73A C86A  0.781
131. G55U C63A  0.783
132. C61U A87C  0.784
133. C58G C62A  0.796
134. A45C C61U  0.796
135. C22U C66G  0.814
136. G5U A56C  0.831
137. G11C C85G  0.831
138. U12C A83G  0.85
139. C64G A71U  0.863
140. C58U U69A  0.89
141. A8G A45G  0.9
142. C41U U60C  0.906
143. G53A C66G  0.908
144. G73C C86U  0.914
145. A8G C41U  0.917
146. A16C C49G  0.923
147. U37C C86G  0.956
148. A51U G76A  0.961
149. G53C C57U  0.969
150. G52U G59A  0.982
151. A51U G55C  1.01
152. A45U U72C  1.02
153. G10C C63U  1.03
154. A16G A70C  1.04
155. U12C A16U  1.05
156. A56C G76C  1.06
157. C26G A87G  1.07
158. G10C C85U  1.07
159. A56U G59U  1.08
160. U47A C64U  1.08
161. U46G G59A  1.09
162. U23A C57A  1.09
163. U47G A51C  1.13
164. G52C C58G  1.13
165. C33U U65G  1.14
166. G76C C85U  1.14
167. U65C C86G  1.18
